Assay results taken from PMC6910923, “Novel halo- and thermo-tolerant Cohnella sp. A01 L-glutaminase: heterologous expression and biochemical characterization” (Scientific Reports, 2019).

Tested on: NC(=O)CC[C@H](N)C(=O)O
Test: purified protein
Details: MgCl2 present, 0-25 mM substrate, standard assay pH 8 phosphate, 50 °C

## rSAM (L-glutaminase) (Cohnella sp.)
  Km: 1800 µM
